Measured values: article PMC5454392, “Selective BET bromodomain inhibition as an antifungal therapeutic strategy” (Nature Communications, 2017)
Numbered stars: 1 amine (or outer) side, 2 acyl side, 3 side chain; on linkers, the order of the positions; unused ones are H or OH. Square brackets hold non-standard residues; d marks the D form. Ends that are not written are not given here. Arg(Me2a) = CN(C)C(=N)NCCC[C@H](N)C(=O)O; Kac = CC(=O)NCCCC[C@H](N[*:1])C(=O)[*:2]; Lys(Me3) = C[N+](C)(C)CCCC[C@H](N)C(=O)O; Arg(Me2s) = CN=C(NC)NCCC[C@H](N)C(=O)O; pT = C[C@@H](OP(=O)(O)O)[C@H](N)C(=O)O; Lys(Me2) = CN(C)CCCC[C@H](N)C(=O)O; pS = N[C@@H](COP(=O)(O)O)C(=O)O; Me2a = not defined here; me2a = not defined here

T1: CaBdf1 BD1 (GST-tagged, wild-type) (Candida albicans (strain SC5314 / ATCC …, UniProt Q5A4W8))
T1 chain: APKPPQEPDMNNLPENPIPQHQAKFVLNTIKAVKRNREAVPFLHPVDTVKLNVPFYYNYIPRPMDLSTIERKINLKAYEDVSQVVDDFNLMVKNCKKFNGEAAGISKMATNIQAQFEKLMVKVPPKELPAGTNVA

T2: CaBdf1 BD2 (GST-tagged, wild-type) (Candida albicans (strain SC5314 / ATCC …, UniProt Q5A4W8))
T2 chain: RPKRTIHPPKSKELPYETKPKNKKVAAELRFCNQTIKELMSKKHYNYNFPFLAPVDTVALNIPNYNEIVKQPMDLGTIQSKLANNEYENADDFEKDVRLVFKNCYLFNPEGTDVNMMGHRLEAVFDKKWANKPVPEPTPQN


Assays:
[1] = target: T1, CaBdf1 BD1 (GST-tagged, wild-type); assay: histone peptide array (Active Motif MODified), 1 uM GST-tagged bromodomain, anti-GST detection, normalized mean intensity
[2] = target: T2, CaBdf1 BD2 (GST-tagged, wild-type); assay: as above

Row | Binder | binding score [1] | binding score [2]
1 | PRKQLATKAARKSAPATGG (P R K Q L A T K A A Rme2a Kme2 S A P A T G G) | 0.00363 | 0.00555
2 | PRKQLATKAAR(Me2a)K(Ac)SAPATGG (reading uncertain) | 0.0189 | 0.00999
3 | ARTKQTARKSTGGKAPRKQ (A Rme2s T Kme1 Q T A R Kme3 S T G G K A P R K Q) | 0.00326 | 0.00259
4 | PDPAK(Ac)SAPAPKK(Ac)G[pS]K(Ac)KAVT | 0.0982 | 0.232
5 | ARTKQTARKSTGGKAPRKQ (A R T K Q T A R K pS pT G G K A P R K Q) | 0.00326 | 0.00407
6 | AR(Me2a)TK(Me)QTAR(Me2s)K(Ac)STGGKAPRKQ (reading uncertain) | 0.0341 | 0.0037
7 | PRKQLATKAAR(Me2a)K(Me2)[pS]APATGG (reading uncertain) | 0.00145 | 0.00555
8 | ARTKQTA[Arg(Me2a)]K(Me)[pS][pT]GGKAPRKQ | 0.00471 | 0.0037
9 | SGRGKGGKGLGKGGAKRHR (S G R G K G G Kac G L G Kac G G A K R H R) | 0.0707 | 0.0418
10 | SGRGKGGKGLGKGGAKRHR (pS G Rme2s G Kac G G Kac G L G K G G A K R H R) | 0.054 | 0.0352
11 | AR[pT]K(Me3)QTARKSTGGKAPRKQ | 0.00435 | 0.00296
12 | ARTKQTARKSTGGKAPRKQ (A Rme2a T Kme3 Q T A R K S T G G K A P R K Q) | 0.0109 | 0.00259
13 | ARTKQTARKSTGGKAPRKQ (A R T K Q T A R Kme2 S T G G K A P R K Q) | 0.00109 | 0.00296
14 | ARTKQTARKSTGGKAPRKQ (A R T Kme1 Q T A Rme2a Kme3 S T G G K A P R K Q) | 0.00254 | 0.00333
15 | A[Arg(Me2a)]TK(Ac)QTA[Arg(Me2s)][Lys(Me3)]STGGKAPRKQ | 0.00653 | 0.0122
16 | ARTK(Me)QTARKSTGGKAPRKQ | 0.000725 | 0.00185
17 | AR[pT]K(Me)QTARKSTGGKAPRKQ | 0.00471 | 0.00296
18 | AR(Me2a)[pT]K(Me2)QTARKSTGGKAPRKQ (reading uncertain) | 0.00181 | 0
19 | A[Arg(Me2a)]T[Lys(Me3)]QTA[Arg(Me2s)][Lys(Me2)]STGGKAPRKQ | 0.00326 | 0.00592
20 | ARTKQTARKSTGGKAPRKQ (A R T K Q T A R Kme3 S T G G K A P R K Q) | 0.0029 | 0.00222
21 | ARTKQTARKSTGGKAPRKQ (A Rme2s T Kme3 Q T A Rme2a Kme1 S T G G K A P R K Q) | 0.0272 | 0.00222
22 | PDPAK(Ac)SAPAPKK(Ac)G[pS]KKAVT | 0.00979 | 0.00481
23 | ARTK(Me)QTAR(me2a)K(Me)STGGKAPRKQ (reading uncertain) | 0.00508 | 0.00407
24 | PDPAKSAPAPKKGSKKAVT (not fully specified) | 0.00435 | 0.00074
25 | SGRGKGGKGLGKGGAKRHR (pS G Rme2a G Kac G G K G L G K G G A K R H R) | 0.0105 | 0.00444

Row | Binder | binding score [1] | binding score [2]
26 | A[Arg(Me2s)]TK(Ac)QTARK(Me)STGGKAPRKQ | 0.00798 | 0.00333
27 | ARTKQTARKSTGGKAPRKQ (A R T K Q T A Rme2s Kme2 pS T G G K A P R K Q) | 0.00363 | 0.00333
28 | ARTKQTARKSTGGKAPRKQ (A Rme2a T Kme2 Q T A Rme2a Kme2 S T G G K A P R K Q) | 0.00399 | 0.00555
29 | PRKQLATKAARK(Ac)SAPATGG | 0.0138 | 0.0307
30 | SGRGK(Ac)QGGKARAKAKSRSS | 0.021 | 0.0074
31 | PDPAK(Ac)SAPAPKKGSK(Ac)KAVT | 0.0323 | 0.00962
32 | PDPAKSAPAPKKGSK(Ac)KAVT | 0.0199 | 0.00481
33 | ARTKQTARKSTGGKAPRKQ (A R T K Q T A Rme2a Kme2 pS pT G G K A P R K Q) | 0.00471 | 0.00555
34 | ARTKQTARKSTGGKAPRKQ (A Rme2a T Kme1 Q T A Rme2s Kme3 S T G G K A P R K Q) | 0.00471 | 0.00629
35 | ARTKQTARKSTGGKAPRKQ (A R T K Q T A R Kme3 S pT G G K A P R K Q) | 0.00363 | 0.0037
36 | [pS]GRGK(Ac)QGGKARAK(Ac)AKSRSS | 0.0964 | 0.0148
37 | ARTKQTARKSTGGKAPRKQ (A Rme2a T Kme3 Q T A Rme2s Kme1 S T G G K A P R K Q) | 0.00326 | 0.00407
38 | SGRGKGGKGLGKGGAKRHR (S G Rme2s G Kac G G Kac G L G K G G A K R H R) | 0.0334 | 0.0322
39 | ARTKQTARKSTGGKAPRKQ (A Rme2a T Kme1 Q T A Rme2s Kme2 S T G G K A P R K Q) | 0.00218 | 0.00222
40 | ARTKQTARKSTGGKAPRKQ (A R T K Q T A R Kme2 pS T G G K A P R K Q) | 0.00326 | 0.00333
41 | AR(Me2a)TK(Me2)QTARKSTGGKAPRKQ (reading uncertain) | 0.00109 | 0.0037
42 | PRKQLATKAA[Arg(Me2a)]KSAPATGG | 0.00326 | 0.00148
43 | PRKQLATKAAR(Me2s)K(Me3)SAPATGG | 0.00181 | 0.0037
44 | ART[Kac]QTA[Arg(Me2a)][Lys(Me2)]STGGKAPRKQ | 0.00761 | 0.00555
45 | AR[pT]K(Ac)QTARKSTGGKAPRKQ | 0.00725 | 0.00333
46 | ARTKQTARKSTGGKAPRKQ (A Rme2s T Kac Q T A Rme2s Kme1 S T G G K A P R K Q) | 0.00653 | 0.00407
47 | ARTKQTARKSTGGKAPRKQ (A R T Kme3 Q T A Rme2s Kme3 S T G G K A P R K Q) | 0.00399 | 0.00407
48 | RKSAPATGGVKKPHRYRPG (R K S A P A T G G V Kme2 K P H R Y R P G) [H3 26-45] | 0.0058 | 0.00555
49 | ARTKQTARKSTGGKAPRKQ (A R T K Q T A R Kme1 S T G G K A P R K Q) | 0.00435 | 0.00407
50 | [pS]GRGKQGGKARAKAKSRSS | 0.0131 | 0.00592
